The values below come from patent publication US20250388673A1 (HIFIBIO, published 2025).

T1: human BTLA (human, UniProt Q7Z6A9 31-289)
T1 construct: also called hBTLA; HEK293.hBTLA
T1 sequence: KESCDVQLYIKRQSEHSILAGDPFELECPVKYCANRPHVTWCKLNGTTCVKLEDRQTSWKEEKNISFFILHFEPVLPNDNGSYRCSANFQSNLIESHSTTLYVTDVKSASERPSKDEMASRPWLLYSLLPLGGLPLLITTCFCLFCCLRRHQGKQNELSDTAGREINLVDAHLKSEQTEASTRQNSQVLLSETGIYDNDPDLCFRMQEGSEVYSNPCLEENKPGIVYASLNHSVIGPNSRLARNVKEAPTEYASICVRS

B1: HFB6-4-hG1 (human-mouse chimeric monoclonal antibody) (antibody, human IgG1, kappa, V domains shown)
VH: EVQLQQSGAELVNPGASVKLSCTTSGFNIKDTYIHWVKQRPEQGLEWIGRNDPANGNTKYDPKFQGKATITADTSSSTAYLQLSSLTSEDTAVYYCASYEGYYERFGYWGQGTLVTVSA
VL: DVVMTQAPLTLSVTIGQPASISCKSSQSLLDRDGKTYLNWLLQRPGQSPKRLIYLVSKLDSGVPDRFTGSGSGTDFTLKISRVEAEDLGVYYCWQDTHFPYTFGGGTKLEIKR
notes: also called HFB6-4 parental antibody
B2: HFB6-4hz21-hG1 (antibody, human IgG1, V domains shown)
VH: EVQLVESGGGLVQPGRSLRLSCTTSGFNIKDTYIHWFRQAPGKGLEWVGRNDPANGNTKYTASFKGRATISADGSKSIAYLQMNSLKTEDTAVYYCASYEGYYERFGYWGQGTLVTVSS
VL: DIVMTQSPDSLAVSLGERATINCKSSQSLLDRDGKTYLNWLQQKPGQSPKRLIYLVSKLDSGVPDRFSGSGSGTDFTLTISSLQAEDLAVYYCWQDTHFPYTFGQGTKLEIK
notes: Humanized variant of HFB6-4, human IgG1 (hG1)
B3: HFB6-4hz24-hG1 (antibody, human IgG1, V domains shown)
VH: EVQLVQSGAEVKKPGESLKISCKTSGFNIKDTYIHWVRQMPGKGLEWIGRNDPANGNTKYSPSFQGQVTISADKSISTAYLQLSSLKASDTAMYYCASYEGYYERFGYWGQGTLVTVSS
VL: DIVMTQSPDSLAVSLGERATINCKSSQSLLDRDGKTYLNWLQQKPGQSPKRLIYLVSKLDSGVPDRFSGSGSGTDFTLTISSLQAEDLAVYYCWQDTHFPYTFGQGTKLEIK
notes: as for B2
B4: HFB6-4hz23-hG1 (antibody, human IgG1, V domains shown)
VH: QVQLQESGPGLVKPSGTLSLTCAVSGFNIKDTYIHWVRQPPGKGLEWIGRNDPANGNTKYNPSFKSRATISADKSKNQASLKLSSVTAADTAVYYCASYEGYYERFGYWGQGTLVTVSS
VL: DIVMTQSPDSLAVSLGERATINCKSSQSLLDRDGKTYLNWLQQKPGQSPKRLIYLVSKLDSGVPDRFSGSGSGTDFTLTISSLQAEDLAVYYCWQDTHFPYTFGQGTKLEIK
notes: as for B2
B5: HFB6-4hz22-hG1 (antibody, human IgG1, V domains shown)
VH: EVQLVESGGGLVQPGGSLKLSCATSGFNIKDTYIHWVRQASGKGLEWIGRNDPANGNTKYAASFKGRATISADDSKNTAYLQLNSLKTEDTAVYYCASYEGYYERFGYWGQGTLVTVSS
VL: DIVMTQSPDSLAVSLGERATINCKSSQSLLDRDGKTYLNWLQQKPGQSPKRLIYLVSKLDSGVPDRFSGSGSGTDFTLTISSLQAEDLAVYYCWQDTHFPYTFGQGTKLEIK
notes: as for B2
B6: HFB6-5hz9-hG1 (antibody, human IgG1, V domains shown)
VH: EVQLVESGGGLVQPGRSLRLSCTASGVNIKDTYMYWVRQAPGKGLEWVGRIDPANGYTRYTASFKGRATISADGSKSIAYLQMNSLKTEDTAVYYCAVYDGYYESFDVWGQGTLVTVSS
VL: DVVMTQSPLSLPVTLGQPASISCRSSQSLLDSDGKTYLNWLQQRPGQSPRRLIYLVSKRDSGVPDRFSGSGSGTDFTLKISRVEAEDLGVYYCWQGTLFPRTFGQGTKLEIK
notes: Humanized variant of HFB6-5, human IgG1 (hG1)
B7: HFB6-5hz11-hG1 (antibody, human IgG1, V domains shown)
VH: QVQLQESGPGLVKPSGTLSLTCAASGVNIKDTYMYWVRQPPGKGLEWIGRIDPANGYTRYNPSFKSRATISADKSKNQASLKLSSVTAADTAVYYCAVYDGYYESFDVWGQGTLVTVSS
VL: DVVMTQSPLSLPVTLGQPASISCRSSQSLLDSDGKTYLNWLQQRPGQSPRRLIYLVSKRDSGVPDRFSGSGSGTDFTLKISRVEAEDLGVYYCWQGTLFPRTFGQGTKLEIK
notes: as for B6
B8: HFB6-5hz15-hG1 (antibody, human IgG1, V domains shown)
VH: EVQLVESGGGLVQPGRSLRLSCTASGVNIKDTYMYWVRQAPGKGLEWVGRIDPANGYTRYTASFKGRATISADGSKSIAYLQMNSLKTEDTAVYYCAVYDGYYESFDVWGQGTLVTVSS
VL: EIVLTQSPGTLSVSPGERATISCRSSQSLLDSDGKTYLNWLQQKPGQAPRRLIYLVSKRDTGVPDRFSGSGSGTDFTLTISRVEPEDFAVYYCWQGTLFPRTFGQGTKLEIK
notes: as for B6
B9: HFB6-5hz12-hG1 (antibody, human IgG1, V domains shown)
VH: EVQLVQSGAEVKKPGESLKISCKGSGVNIKDTYMYWVRQMPGKGLEWIGRIDPANGYTRYSPSFQGQVTISADKSISTAYLQLSSLKASDTAMYYCAVYDGYYESFDVWGQGTLVTVSS
VL: DVVMTQSPLSLPVTLGQPASISCRSSQSLLDSDGKTYLNWLQQRPGQSPRRLIYLVSKRDSGVPDRFSGSGSGTDFTLKISRVEAEDLGVYYCWQGTLFPRTFGQGTKLEIK
notes: as for B6
B10: HFB6-5hz10-hG1 (antibody, human IgG1, V domains shown)
VH: EVQLVESGGGLVQPGGSLKLSCAASGVNIKDTYMYWVRQASGKGLEWIGRIDPANGYTRYAASFKGRATISADDSKNTAYLQLNSLKTEDTAVYYCAVYDGYYESFDVWGQGTLVTVSS
VL: DVVMTQSPLSLPVTLGQPASISCRSSQSLLDSDGKTYLNWLQQRPGQSPRRLIYLVSKRDSGVPDRFSGSGSGTDFTLKISRVEAEDLGVYYCWQGTLFPRTFGQGTKLEIK
notes: as for B6
B11: HFB6-5hz1-hG1 (antibody, human IgG1, V domains shown)
VH: QVQLVQSGAEVKKPGSSVKVSCKASGVNIKDTYMYWVRQAPGQGLEWIGRIDPANGYARYAQKFQGRATITADESTSTAYMELSSLRSEDTAVYYCAVYDGYYESFDVWGQGTLVTVSS
VL: DIQMTQSPSSLSASVGDRVTITCRSSQSLLDSDGKSYLNWLQQKPGKAPKRLIYLVSKLDSGVPSRFSGSGSGTDFTLTISSLQPEDFATYYCWQGTLFPRTFGQGTKLEIK
notes: as for B6
B12: HFB6-5hz5-hG1 (antibody, human IgG1, V domains shown)
VH: QVQLQESGPGLVKPSGTLSLTCAASGVNIKDTYMYWVRQPPGKGLEWIGRIDPANGYTRYNPSFKSRATISADKSKNQASLKLSSVTAADTAVYYCAVYDGYYESFDVWGQGTLVTVSS
VL: DIQMTQSPSSLSASVGDRVTITCRSSQSLLDSDGKSYLNWLQQKPGKAPKRLIYLVSKLDSGVPSRFSGSGSGTDFTLTISSLQPEDFATYYCWQGTLFPRTFGQGTKLEIK
notes: as for B6
B13: HFB6-5hz3-hG1 (antibody, human IgG1, V domains shown)
VH: EVQLVESGGGLVQPGRSLRLSCTASGVNIKDTYMYWVRQAPGKGLEWVGRIDPANGYTRYTASFKGRATISADGSKSIAYLQMNSLKTEDTAVYYCAVYDGYYESFDVWGQGTLVTVSS
VL: DIQMTQSPSSLSASVGDRVTITCRSSQSLLDSDGKSYLNWLQQKPGKAPKRLIYLVSKLDSGVPSRFSGSGSGTDFTLTISSLQPEDFATYYCWQGTLFPRTFGQGTKLEIK
notes: as for B6
B14: HFB6-5hz6-hG1 (antibody, human IgG1, V domains shown)
VH: EVQLVQSGAEVKKPGESLKISCKGSGVNIKDTYMYWVRQMPGKGLEWIGRIDPANGYTRYSPSFQGQVTISADKSISTAYLQLSSLKASDTAMYYCAVYDGYYESFDVWGQGTLVTVSS
VL: DIQMTQSPSSLSASVGDRVTITCRSSQSLLDSDGKSYLNWLQQKPGKAPKRLIYLVSKLDSGVPSRFSGSGSGTDFTLTISSLQPEDFATYYCWQGTLFPRTFGQGTKLEIK
notes: as for B6
B15: HFB6-5hz7-hG1 (antibody, human IgG1, V domains shown)
VH: QVQLVQSGAEVKKPGSSVKVSCKASGVNIKDTYMYWVRQAPGQGLEWIGRIDPANGYARYAQKFQGRATITADESTSTAYMELSSLRSEDTAVYYCAVYDGYYESFDVWGQGTLVTVSS
VL: DVVMTQSPLSLPVTLGQPASISCRSSQSLLDSDGKTYLNWLQQRPGQSPRRLIYLVSKRDSGVPDRFSGSGSGTDFTLKISRVEAEDLGVYYCWQGTLFPRTFGQGTKLEIK
notes: as for B6
B16: HFB6-5hz13-hG1 (antibody, human IgG1, V domains shown)
VH: QVQLVQSGAEVKKPGSSVKVSCKASGVNIKDTYMYWVRQAPGQGLEWIGRIDPANGYARYAQKFQGRATITADESTSTAYMELSSLRSEDTAVYYCAVYDGYYESFDVWGQGTLVTVSS
VL: EIVLTQSPGTLSVSPGERATISCRSSQSLLDSDGKTYLNWLQQKPGQAPRRLIYLVSKRDTGVPDRFSGSGSGTDFTLTISRVEPEDFAVYYCWQGTLFPRTFGQGTKLEIK
notes: as for B6
B17: HFB6-5hz2-hG1 (antibody, human IgG1, V domains shown)
VH: QVQLVQSGAEVKKPGASVKVSCKASGVNIKDTYMYWVRQAPGQGLEWIGRIDPANGYTRYAQKFQGRATITADTSTSTVYMELSSLRSEDTAVYYCAVYDGYYESFDVWGQGTLVTVSS
VL: DIQMTQSPSSLSASVGDRVTITCRSSQSLLDSDGKSYLNWLQQKPGKAPKRLIYLVSKLDSGVPSRFSGSGSGTDFTLTISSLQPEDFATYYCWQGTLFPRTFGQGTKLEIK
notes: as for B6
B18: HFB6-5hz8-hG1 (antibody, human IgG1, V domains shown)
VH: QVQLVQSGAEVKKPGASVKVSCKASGVNIKDTYMYWVRQAPGQGLEWIGRIDPANGYTRYAQKFQGRATITADTSTSTVYMELSSLRSEDTAVYYCAVYDGYYESFDVWGQGTLVTVSS
VL: DVVMTQSPLSLPVTLGQPASISCRSSQSLLDSDGKTYLNWLQQRPGQSPRRLIYLVSKRDSGVPDRFSGSGSGTDFTLKISRVEAEDLGVYYCWQGTLFPRTFGQGTKLEIK
notes: as for B6
B19: HFB6-5hz4-hG1 (antibody, human IgG1, V domains shown)
VH: EVQLVESGGGLVQPGGSLKLSCAASGVNIKDTYMYWVRQASGKGLEWIGRIDPANGYTRYAASFKGRATISADDSKNTAYLQLNSLKTEDTAVYYCAVYDGYYESFDVWGQGTLVTVSS
VL: DIQMTQSPSSLSASVGDRVTITCRSSQSLLDSDGKSYLNWLQQKPGKAPKRLIYLVSKLDSGVPSRFSGSGSGTDFTLTISSLQPEDFATYYCWQGTLFPRTFGQGTKLEIK
notes: as for B6
B20: HFB6-5hz14-hG1 (antibody, human IgG1, V domains shown)
VH: QVQLVQSGAEVKKPGASVKVSCKASGVNIKDTYMYWVRQAPGQGLEWIGRIDPANGYTRYAQKFQGRATITADTSTSTVYMELSSLRSEDTAVYYCAVYDGYYESFDVWGQGTLVTVSS
VL: EIVLTQSPGTLSVSPGERATISCRSSQSLLDSDGKTYLNWLQQKPGQAPRRLIYLVSKRDTGVPDRFSGSGSGTDFTLTISRVEPEDFAVYYCWQGTLFPRTFGQGTKLEIK
notes: as for B6

The target in the experiment is T1, human BTLA. Kind of experiment: flow cytometry, HEK293 cells overexpressing human BTLA. On the procedure: HEK293 cells overexpressing human BTLA and Expi293 cells overexpressing cynomolus BTLA were incubated with different concentrations of humanized anti-BTLA antibodies. Anti-BTLA antibody binding to target cells were quantified with an AF647-conjugated anti-human IgG Fc secondary antibody by flow cytometry.
B1: the binding result was “binds”.

For the molecule B2, the binding result was “binds”.

Take B3: the binding result was “binds”.

Regarding B4, the binding result was “binds”.

For B5, the binding result is on record as “binds”.

As to B6, the binding result is listed as “binds”.

As for B7, the binding result is given as “binds”.

Take B8: the binding result is listed as “binds”.

For the molecule B9, the binding result was “binds”.

In the case of B10, the binding result is recorded as “binds”.

Take B11: the binding result is recorded as “binds”.

For B12, the binding result is reported as “binds”.

Regarding B13, the binding result is listed as “binds”.

Regarding B14, the binding result was “binds”.

As for B15, the binding result is “binds”.

Turning to B16, the binding result is on record as “binds”.

Consider B17, for which the binding result was “binds”.

Take B18: the binding result is reported as “binds”.

Regarding B19, the binding result is “binds”.

Regarding B20, the binding result is “binds”.
